Target: recombinant activated coagulation factor VII (FVIIa, AryoSeven) (UniProt P08709;P08709 61-212;213-466)
Experiment: fluorescence intensity change (FAM), plate reader; 5 mM Ca2+, 5 mM Mg2+; 40 mM Tris, 117 mM NaCl, 5 mM CaCl2, 5 mM MgCl2, pH 7.4; 1 nM protein, aptamer 100 pM-10 uM; 4 C, 1 h; errors are SE
Conditions: copies: 1;1, single strand, predicted partly folded

Sequence of recombinant activated coagulation factor VII (FVIIa, AryoSeven) (P08709 61-212, chain 1 of 2): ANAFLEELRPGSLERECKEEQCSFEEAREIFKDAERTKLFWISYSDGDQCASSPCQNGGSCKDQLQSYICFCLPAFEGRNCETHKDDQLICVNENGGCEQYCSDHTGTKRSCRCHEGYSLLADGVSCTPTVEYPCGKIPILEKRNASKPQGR
Sequence of recombinant activated coagulation factor VII (FVIIa, AryoSeven) (P08709 213-466, chain 2 of 2): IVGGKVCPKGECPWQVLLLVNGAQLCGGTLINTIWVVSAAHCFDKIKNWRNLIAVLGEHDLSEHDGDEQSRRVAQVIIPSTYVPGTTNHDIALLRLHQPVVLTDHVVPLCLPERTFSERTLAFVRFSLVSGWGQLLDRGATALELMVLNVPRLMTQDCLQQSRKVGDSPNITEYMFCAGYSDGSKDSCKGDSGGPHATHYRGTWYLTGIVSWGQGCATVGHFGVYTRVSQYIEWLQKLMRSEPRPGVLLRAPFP

B1: Apt44 (ssDNA)
DNA: CCGCACACCACGCGCATAATCCCGCGCACACGACTTGAAGTAGC
- Kd: 167 ± 18 nM

B2: Apt81 (ssDNA)
DNA: GGGAGATAGCCACGACCTATGCAGCCAGCCGCAGTGTAAGTGAATGCAGACATGGTCTAAGTGTCCAGGCTGTGCGAAAGC
- Kd: 938 ± 149 nM

Reference: article PMC5410128, “Can Aptameric Ligands Specific to Plasma Coagulation Factor VII Bind the Recombinant Form with High Affinity: Affinity Measurement by Fluorescence Method”
